Substitutions are numbered along the chain they refer to. Like-named read-outs stand apart in the source and are kept apart here.
B1: chAb13 (antibody, IgG1, V domains shown)
VH: DVQLQESGPDLVKPSQSLSLTCTVTGYSITSGYSWHWIRQFPGNKLEWMGYIHSSGSTNYNPSLKSRISINRDTSKNQFFLQLNSVTTEDTATYYCAGYDDYFEYWGQGTTLTVSS
VL: DIVMTQSQKFMSTSVGDRVSVTCKASQNVGFNVAWYQQKPGQSPKALIYSASYRYSGVPDRFTGSGSGTDFTLTISNVQSEDLAEYFCQQYNSYPFTFGSGTKLEIK
notes: chimeric, huIgG1/k
B2: chAb13-CZ (antibody, IgG1, V domains shown)
VH: B1 VH
VL: B1 VL
modifications: synthon CZ on reduced interchain Cys
B3: huAb3v2 (antibody, V domains shown)
VH: EVQLVQSGAEVKKPGSSVKVSCKASGYTFSSYWMHWVRQAPGQGLEWIGLIHPDSGSTNYNEMFKNRATLTVDRSTSTAYMELSSLRSEDTAVYYCAGGGRLYFDYWGQGTTVTVSS
VL: DIVMTQSPLSLPVTPGEPASISCRSSQSLVHSNGDTYLRWYLQKPGQSPQLLIYKVSNRFSGVPDRFSGSGSGTDFTLKISRVEAEDVGVYYCSQSTHVPYTFGGGTKVEIK
notes: humanized IgG
B4: huAb13v5-CZ (antibody, V domains shown)
VH: EVQLQESGPGLVKPSETLSLTCAVTGYSITSGYSWHWIRQFPGNGLEWMGYIHSSGSTNYNPSLKSRISISRDTSKNQFFLKLSSVTAADTAVYYCAGYDDYFEYWGQGTTVTVSS
VL: DIQMTQSPSSLSASVGDRVTITCKASQNVGFNVAWYQQKPGKAPKLLIYSASYRYSGVPSRFSGSGSGTDFTLTISSLQPEDFATYYCQQYNWYPFTFGQGTKLEIK
modifications: synthon CZ on reduced interchain Cys
notes: ADC, DAR 3.4
B5: huAb13v6-CZ (antibody, V domains shown)
VH: B4 VH
VL: B4 VL with Y87F
modifications: synthon CZ on reduced interchain Cys
notes: ADC, DAR 3.6

What was measured:
[1] = target: T1, Human B7-H3-ECD (His tag) (human, UniProt Q5ZPR3 29-461); assay: SPR Biacore, naked mAb
T1 construct: SPR analyte; also called huB7-H3; soluble ECD of human B7-H3
T1 sequence: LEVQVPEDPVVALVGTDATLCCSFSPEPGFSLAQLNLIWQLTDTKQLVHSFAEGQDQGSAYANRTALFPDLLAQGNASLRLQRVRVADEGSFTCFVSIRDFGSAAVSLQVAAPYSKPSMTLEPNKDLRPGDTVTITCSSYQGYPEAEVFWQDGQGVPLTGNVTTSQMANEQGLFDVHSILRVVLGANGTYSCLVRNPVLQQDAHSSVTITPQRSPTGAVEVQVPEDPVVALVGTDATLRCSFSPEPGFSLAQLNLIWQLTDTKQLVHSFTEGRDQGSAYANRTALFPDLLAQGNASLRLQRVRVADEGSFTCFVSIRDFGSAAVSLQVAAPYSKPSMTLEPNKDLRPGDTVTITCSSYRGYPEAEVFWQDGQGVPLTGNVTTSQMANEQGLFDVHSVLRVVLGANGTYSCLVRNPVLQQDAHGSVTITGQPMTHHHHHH
Excerpt: Biacore T200 SPR instruments were used to measure the binding kinetics of human B7-H3 (analyte) binding to various mAbs (ligands). The assay format was Fc-based capture via immobilized anti-mouse (Fc) (Pierce 31170) or immobilized anti-human (Fc) (Pierce 31125). A standard amine coupling protocol was employed to immobilize the capture reagents via primary amines to the carboxy-methyl (CM) dextran surface of CM5 sensorchips (Biacore); capture antibodies were coupled to a level of approximately 5000RU. For binding kinetic measurements the assay buffer was HBS-EP+ (Biacore): 10 mM Hepes, pH7.4, 150 mM NaCl, 3 mM EDTA, 0.05% polysorbate 20. During the assay, all measurements were referenced against the capture surface alone. Each assay cycle consisted of the following steps: 1) Capture of ligand to approximately 50RU; 2) Analyte injection over both reference and test surface, 240 μL at 80 μL/min, after which the dissociation was monitored for 900 seconds at 80 μL/min; 3) Regeneration of capture surface with low pH glycine. […] Data were processed and fit to a 1:1 binding model using Biacore T200 Evaluation Software to determine the binding kinetic rate constants, kₐ (on-rate) and kd (off-rate), and the equilibrium dissociation constant (affinity, KD). […]

[2] = target: T2, Human full length B7-H3 (human, UniProt Q5ZPR3 29-534); assay: FACS, NCI-H1650 cells
T2 construct: On 3T12 fibroblasts expressing full length human B7-H3 or on NCI-H1650 cells; signal peptide residues 1-28 stated; also called huB7-H3; CD276
T2 sequence: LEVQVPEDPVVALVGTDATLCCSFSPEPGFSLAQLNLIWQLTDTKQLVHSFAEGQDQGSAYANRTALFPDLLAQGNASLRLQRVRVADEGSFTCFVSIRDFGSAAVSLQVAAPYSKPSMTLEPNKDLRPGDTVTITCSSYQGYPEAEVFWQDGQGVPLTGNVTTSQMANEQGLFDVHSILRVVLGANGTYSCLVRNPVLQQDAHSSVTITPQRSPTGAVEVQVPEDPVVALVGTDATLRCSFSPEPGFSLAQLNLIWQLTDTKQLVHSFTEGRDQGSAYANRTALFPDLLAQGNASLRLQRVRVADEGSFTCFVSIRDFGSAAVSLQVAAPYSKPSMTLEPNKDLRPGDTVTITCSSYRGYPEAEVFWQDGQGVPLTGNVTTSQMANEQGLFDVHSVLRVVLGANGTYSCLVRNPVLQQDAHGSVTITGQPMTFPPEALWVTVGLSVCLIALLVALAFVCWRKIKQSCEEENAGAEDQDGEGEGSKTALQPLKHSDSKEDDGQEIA
Protocol: To generate purified chimeric antibodies, expression vectors were transiently transfected into HEK293 6E suspension cell cultures in a ratio of 60% to 40% light to heavy chain construct. 1 mg/ml of polyethylenimine (PEI) or 2.6 μL/mL of Expifectamine was used to transfect the cells. Cell supernatants were harvested after five days in shaking flasks, spun down to pellet cells, and filtered through 0.22 μm filters to separate IgG from culture contaminants. Antibody-containing supernatants were purified on Akta Pure using protein A mAb SelectSure. Columns were equilibrated in PBS pH 7.4, supernatants were then passed through the column and a wash was performed with PBS pH 7.4. IgG were eluted with 0.1 M acetic acid pH 3.5 and collected in several aliquots. Fractions containing IgG were pooled and dialyzed in PBS overnight at 4° C.
(§1) Cells were harvested from flasks when approximately 80% confluent using Gibco® Cell Dissociation Buffer. Cells were washed once in PBS/1% FBS (FACS buffer) then resuspended at 2.5×10⁶ cells/mL in FACS buffer. 100 μL of cells/well were added to a round bottom 96-well plate. 10 μL of a 10× concentration of mAb/ADC (final concentrations are indicated the figures). Wells were washed twice with FACS buffer and resuspended in 50 μL of secondary Ab (AlexaFluor 488) diluted in FACS buffer. The plate was incubated at 4° C. for one hour and washed twice with FACS buffer. Cells were resuspended in 100 μL of PBS/1% formaldehyde and analyzed on a Becton Dickinson LSRII flow cytometer. Data was analyzed using WinList flow cytometry analysis software.

[3] = target: T3, hB7-H3 (ELISA antigen of Tables 17 and 20) (human, UniProt Q5ZPR3 29-466, limits assumed); assay: ELISA
T3 sequence: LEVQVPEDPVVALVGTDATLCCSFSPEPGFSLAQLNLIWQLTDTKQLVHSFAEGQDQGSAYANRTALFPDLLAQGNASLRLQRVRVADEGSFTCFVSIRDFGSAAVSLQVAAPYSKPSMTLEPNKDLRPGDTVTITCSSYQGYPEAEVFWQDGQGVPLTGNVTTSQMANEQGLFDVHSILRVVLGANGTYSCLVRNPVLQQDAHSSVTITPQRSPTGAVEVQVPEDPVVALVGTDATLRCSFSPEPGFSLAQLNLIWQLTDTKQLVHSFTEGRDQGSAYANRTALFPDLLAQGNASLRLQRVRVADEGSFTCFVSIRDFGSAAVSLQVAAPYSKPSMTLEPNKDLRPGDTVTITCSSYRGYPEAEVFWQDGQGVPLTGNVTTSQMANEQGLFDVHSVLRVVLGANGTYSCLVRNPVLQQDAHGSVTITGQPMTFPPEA

[4] = target: T2, Human full length B7-H3; assay: FACS (Example 6 method)
Protocol: as §1
(§2) Nine huAb13 variants described in Examples 17 and 18 were generated and tested for binding to B7-H3 by FACS (according to methods described in Example 6).

[5] = target: T4, Cynomolgous B7-H3 on cells (cynomolgus); assay: FACS (Example 6 method)
T4 construct: whole, on cells; also called cyB7-H3; cyno B7-H3
Protocol: as §1, §2

[6] = target: T2, Human full length B7-H3; assay: FACS, cell surface human B7-H3 (as Example 6)
Protocol: as §1
Nine anti-B7-H3 chimeric antibodies were conjugated to the Bcl-xL inhibiting (Bcl-xLi) synthon CZ (Example 2.1) using conjugation Method A described below. The resulting ADCs (anti-B7-H3 antibodies conjugated to synthon CZ) were tested for binding to cell surface human B7-H3 by FACS (as described in Example 6) and for cell cytotoxicity in cell lines expressing B7-H3. […] Table 6 provides cell surface binding and cytotoxicity activity of anti-B7-H3 chimera ADCs against breast cancer cell HCC38 expressing human B7-H3.

[7] = target: T1, Human B7-H3-ECD (His tag); assay: SPR Biacore, naked mAb; remark: listed apart in the source
Excerpt: (§3) Biacore T200 SPR instruments were used to measure the binding kinetics of human B7-H3 (analyte) binding to various mAbs (ligands). The assay format was Fc-based capture via immobilized anti-mouse (Fc) (Pierce 31170) or immobilized anti-human (Fc) (Pierce 31125). A standard amine coupling protocol was employed to immobilize the capture reagents via primary amines to the carboxy-methyl (CM) dextran surface of CM5 sensorchips (Biacore); capture antibodies were coupled to a level of approximately 5000RU. For binding kinetic measurements the assay buffer was HBS-EP+ (Biacore): 10 mM Hepes, pH7.4, 150 mM NaCl, 3 mM EDTA, 0.05% polysorbate 20. During the assay, all measurements were referenced against the capture surface alone. Each assay cycle consisted of the following steps: 1) Capture of ligand to approximately 50RU; 2) Analyte injection over both reference and test surface, 240 μL at 80 μL/min, after which the dissociation was monitored for 900 seconds at 80 μL/min; 3) Regeneration of capture surface with low pH glycine. […] Data were processed and fit to a 1:1 binding model using Biacore T200 Evaluation Software to determine the binding kinetic rate constants, kₐ (on-rate) and kd (off-rate), and the equilibrium dissociation constant (affinity, KD).
These variants were further characterized for binding by SPR and as ADCs conjugated to the Bcl-xL inhibitor synthon (linker warhead) CZ. […] An ADC comprising chAb3 conjugated to synthon CZ was used as a control.

[8] = target: T1, Human B7-H3-ECD (His tag); assay: SPR Biacore, naked mAb; remark: listed apart in the source
Excerpt: as §3

Binder | Kd [1] [nM] | EC50 [2] [nM] | EC50 [3] [nM] | EC50 [4] [nM] | EC50 [5] [nM] | EC50 [6] [nM] | Kd [7] [nM] | Kd [8] [nM]
B1 | 5.7 | 1.53 |  |  |  |  |  | 
B2 |  |  | 0.26 | 6.27 | 18.4 | 1.49 |  | 
B3 |  |  |  |  |  |  | 0.69 | 2.3
B4 |  |  | 0.19 | 5.21 | 10.6 |  |  | 
B5 |  |  | 0.14 | 5.83 | 12.9 |  |  | 

From patent publication US20170355769A1 (AbbVie / Abbott, published 2017)
